Laboratory results published in patent US20190309072A1 (published 2019).

How the values were obtained:
[1] = molecular target: T1, human ITGa3 protein (human, UniProt P26006 33-991); assay: ELISA; apparent Kd
T1 chain: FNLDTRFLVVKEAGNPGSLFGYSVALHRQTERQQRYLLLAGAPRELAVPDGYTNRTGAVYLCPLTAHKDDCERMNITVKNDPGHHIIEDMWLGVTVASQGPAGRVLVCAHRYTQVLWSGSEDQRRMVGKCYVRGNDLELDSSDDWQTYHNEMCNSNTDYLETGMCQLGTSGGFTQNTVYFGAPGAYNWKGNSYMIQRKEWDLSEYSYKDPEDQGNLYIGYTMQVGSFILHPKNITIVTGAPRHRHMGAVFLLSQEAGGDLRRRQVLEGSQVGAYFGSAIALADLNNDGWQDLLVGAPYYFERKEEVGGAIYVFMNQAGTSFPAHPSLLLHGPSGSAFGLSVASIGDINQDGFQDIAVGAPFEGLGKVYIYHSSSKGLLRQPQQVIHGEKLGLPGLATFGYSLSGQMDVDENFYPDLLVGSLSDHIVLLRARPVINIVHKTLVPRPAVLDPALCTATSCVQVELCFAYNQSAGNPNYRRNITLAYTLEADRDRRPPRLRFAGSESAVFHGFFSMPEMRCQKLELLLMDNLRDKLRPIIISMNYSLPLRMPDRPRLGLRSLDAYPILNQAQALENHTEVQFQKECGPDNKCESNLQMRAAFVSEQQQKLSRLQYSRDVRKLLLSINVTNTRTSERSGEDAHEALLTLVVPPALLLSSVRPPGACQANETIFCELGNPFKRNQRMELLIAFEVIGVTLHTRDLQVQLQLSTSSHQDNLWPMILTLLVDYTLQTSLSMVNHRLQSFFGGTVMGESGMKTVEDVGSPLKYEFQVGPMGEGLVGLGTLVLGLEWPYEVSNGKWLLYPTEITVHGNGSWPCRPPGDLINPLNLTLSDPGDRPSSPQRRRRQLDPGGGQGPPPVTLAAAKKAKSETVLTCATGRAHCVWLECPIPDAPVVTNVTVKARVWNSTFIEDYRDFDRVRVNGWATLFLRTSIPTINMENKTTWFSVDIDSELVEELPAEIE

[2] = molecular target: T2, cynomolgus monkey ITGa3 on cynomolgus-derived primary kidney epithelial cells (cynomolgus monkey, UniProt A0A2K5VFR2 17-1035); assay: FACS; cyno primary kidney epithelial cells
T2 chain: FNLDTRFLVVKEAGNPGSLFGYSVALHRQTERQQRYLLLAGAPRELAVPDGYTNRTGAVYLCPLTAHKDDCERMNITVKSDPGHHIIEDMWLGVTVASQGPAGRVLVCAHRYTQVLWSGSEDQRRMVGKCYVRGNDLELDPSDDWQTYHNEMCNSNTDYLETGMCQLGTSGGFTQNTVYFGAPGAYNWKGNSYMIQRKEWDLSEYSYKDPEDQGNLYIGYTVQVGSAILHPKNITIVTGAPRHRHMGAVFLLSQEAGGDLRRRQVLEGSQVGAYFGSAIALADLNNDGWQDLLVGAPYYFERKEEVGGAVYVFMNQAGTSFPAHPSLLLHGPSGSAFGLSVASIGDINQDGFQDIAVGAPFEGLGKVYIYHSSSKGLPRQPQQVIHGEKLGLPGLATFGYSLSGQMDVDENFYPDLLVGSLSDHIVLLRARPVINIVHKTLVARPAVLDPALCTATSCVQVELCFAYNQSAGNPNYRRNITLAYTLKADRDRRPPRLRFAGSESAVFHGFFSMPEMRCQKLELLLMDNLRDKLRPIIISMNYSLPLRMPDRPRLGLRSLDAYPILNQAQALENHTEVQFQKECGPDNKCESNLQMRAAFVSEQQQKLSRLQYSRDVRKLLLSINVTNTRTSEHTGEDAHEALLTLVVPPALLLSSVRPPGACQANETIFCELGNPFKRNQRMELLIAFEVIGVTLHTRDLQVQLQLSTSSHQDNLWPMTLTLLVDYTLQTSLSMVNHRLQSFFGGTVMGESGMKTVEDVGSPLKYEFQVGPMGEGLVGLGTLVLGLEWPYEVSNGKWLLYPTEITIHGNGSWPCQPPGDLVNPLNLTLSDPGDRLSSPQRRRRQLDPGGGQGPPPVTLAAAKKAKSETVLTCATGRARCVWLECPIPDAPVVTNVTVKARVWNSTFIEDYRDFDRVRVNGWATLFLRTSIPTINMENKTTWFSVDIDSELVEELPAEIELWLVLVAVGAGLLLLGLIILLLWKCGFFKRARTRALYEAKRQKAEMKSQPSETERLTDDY

[3] = molecular target: T3, human ITGa3 on human-derived cell lines (human, UniProt P26006 33-1051); assay: FACS; human H292 cells
T3 chain: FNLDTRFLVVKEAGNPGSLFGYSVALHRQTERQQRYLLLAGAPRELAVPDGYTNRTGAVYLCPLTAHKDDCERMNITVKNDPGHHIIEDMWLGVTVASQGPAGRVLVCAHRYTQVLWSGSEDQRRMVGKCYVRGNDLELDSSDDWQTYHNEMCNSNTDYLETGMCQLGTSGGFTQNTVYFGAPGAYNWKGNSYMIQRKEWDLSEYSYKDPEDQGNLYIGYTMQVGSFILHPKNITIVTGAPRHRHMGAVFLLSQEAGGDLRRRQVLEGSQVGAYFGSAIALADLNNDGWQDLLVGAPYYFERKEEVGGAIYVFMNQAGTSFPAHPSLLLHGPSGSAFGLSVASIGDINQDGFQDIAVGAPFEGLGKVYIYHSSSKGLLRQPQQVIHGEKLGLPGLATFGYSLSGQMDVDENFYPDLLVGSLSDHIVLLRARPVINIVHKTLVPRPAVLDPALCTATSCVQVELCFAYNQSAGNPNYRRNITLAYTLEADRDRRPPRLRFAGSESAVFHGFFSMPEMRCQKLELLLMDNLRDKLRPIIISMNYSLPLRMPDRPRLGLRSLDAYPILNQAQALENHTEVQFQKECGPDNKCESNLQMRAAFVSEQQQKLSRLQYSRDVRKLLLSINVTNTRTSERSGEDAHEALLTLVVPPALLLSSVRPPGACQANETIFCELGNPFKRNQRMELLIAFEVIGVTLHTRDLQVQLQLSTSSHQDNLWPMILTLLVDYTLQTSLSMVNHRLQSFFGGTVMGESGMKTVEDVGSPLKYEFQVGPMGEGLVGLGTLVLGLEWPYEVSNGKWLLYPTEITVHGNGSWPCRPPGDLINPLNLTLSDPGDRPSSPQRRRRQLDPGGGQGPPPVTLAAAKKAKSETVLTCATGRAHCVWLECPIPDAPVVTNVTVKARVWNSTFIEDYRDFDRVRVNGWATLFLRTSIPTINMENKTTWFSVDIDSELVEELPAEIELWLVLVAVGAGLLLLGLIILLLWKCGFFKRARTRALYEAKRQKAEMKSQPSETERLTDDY

B1: anti-ITGa3 huVM2 Hc2T62G/Lc1 antibody (antibody, V domains shown)
VH: QVQLVQSGAEVKKPGSSVKVSCKASGYTFTEYIIHWVRQAPGQGLEWIGWFYPESGSVKYNEGFKGRATITADKSTSTAYMELSSLRSEDTAVYYCARHEERDYYGYYAMDYWGQGTTVTVSS
VL: DIQMTQSPSSLSASVGDRVTITCSASSSISSNYLHWYQQKPGKVPKLLIYRTSNLASGVPSRFSGSGSGTDYTLTISSLQPEDVATYYCQQGSSIPRFTSGGGTKVEIKR
B1 was tested. Which Kd [1] did it give?
Its Kd is 0.18 nM.

And the Kd [2]?
The Kd was 0.17 nM.

And the Kd [3]?
Its Kd is 0.27 nM.
